Laboratory results: doi:10.1101/2022.01.13.476167v2

Legend:
purified protein [1] = substrate: CCCCCCCC(=O)N[C@H]1CCOC1=O; assay: purified protein; conditions: 0.05 M phosphate buffer, pH 7.0, 35 °C
purified protein [2] = substrate: CCCCCC(=O)N[C@H]1CCOC1=O; assay: purified protein; conditions: 0.05 M phosphate buffer, pH 7.0, 35 °C

B1: ecPGA (Escherichia coli penicillin G acylase) (Escherichia coli) (protein)
chain 1: EQSSSEIKIVRDEYGMPHIYANDTWHLFYGYGYVVAQDRLFQMEMARRSTQGTVAEVLGKDFVKFDKDIRRNYWPDAIRAQIAALSPEDMSILQGYADGMNAWIDKVNTNPETLLPKQFNTFGFTPKRWEPFDVAMIFVGTMANRFSDSTSEIDNLALLTALKDKYGVSQGMAVFNQLKWLVNPSAPTTIAVQESNYPLKFNQQNSQTA
chain 2: SNMWVIGKSKAQDAKAIMVNGPQFGWYAPAYTYGIGLHGAGYDVTGNTPFAYPGLVFGHNGVISWGSTAGFGDDVDIFAERLSAEKPGYYLHNGKWVKMLSREETITVKNGQAETFTVWRTVHGNILQTDQTTQTAYAKSRAWDGKEVASLLAWTHQMKAKNWQEWTQQAAKQALTINWYYADVNGNIGYVHTGAYPDRQSGHDPRLPVPGTGKWDWKGLLPFEMNPKVYNPQSGYIANWNNSPQKDYPASDLFAFLWGGADRVTEIDRLLEQKPRLTADQAWDVIRQTSRQDLNLRLFLPTLQAATSGLTQSDPRRQLVETLTRWDGINLLNDDGKTWQQPGSAILNVWLTSMLKRTVVAAVPMPFDKWYSASGYETTQDGPTGSLNISVGAKILYEAVQGDKSPIPQAVDLFAGKPQQEVVLAALEDTWETLSKRYGNNVSNWKTPAMALTFRANNFFGVPQAAAEETRHQAEYQNRGTENDMIVFSPTTSDRPVLAWDVVAPGQSGFIAPDGTVDKHYEDQLKMYENFGRKSLWLTKQDVEAHKESQEVLHVQR
- Km (purified protein [1]): 700 ± 40 µM
- kcat (purified protein [1]): 0.0085 ± 0.0003 s⁻¹
- Km (purified protein [2]): 590 ± 70 µM
- kcat (purified protein [2]): 0.0090 ± 0.0003 s⁻¹
